In patent US20190330271A1:

Tests used:
[1] = biological target: amylin (UniProt P10997); assay: cell-based or functional assay
[2] = biological target: Aβ42 (UniProt P05067); assay: cell-based or functional assay
[3] = biological target: insulin; assay: cell-based or functional assay
[4] = biological target: lysozyme; assay: cell-based or functional assay
[5] = biological target: Aβ42 monomers, P05067; assay: ELISA, amyloid coated at 1 µg/well, His-tagged ZR detected with HRP-linked antibody
[6] = biological target: T1, amylin fibers, P10997; assay: as above
T1 chain: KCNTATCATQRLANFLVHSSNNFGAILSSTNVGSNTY

[7] = biological target: T2, amylin monomers, P10997; assay: as above
T2 chain: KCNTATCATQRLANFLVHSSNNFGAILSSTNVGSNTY

[8] = biological target: Aβ42 fibers, P05067; assay: as above
Aβ42 fibers, P05067, sequence (P05067 672-713 limits assumed): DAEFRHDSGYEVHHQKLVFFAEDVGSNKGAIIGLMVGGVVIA

[9] = biological target: Aβ42 oligomers, P05067; assay: as above
Aβ42 oligomers, P05067, sequence (P05067 672-713 limits assumed): as above

[10] = biological target: T3, amylin oligomers, P10997; assay: as above
T3 chain: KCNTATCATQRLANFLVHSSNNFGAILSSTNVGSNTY

Aβ42, sequence (P05067 672-713 limits assumed): as the sequence (P05067 672-713 limits assumed) above
Aβ42 monomers, P05067, sequence (P05067 672-713 limits assumed): as the sequence (P05067 672-713 limits assumed) above

SFFNNKR [ZR polypeptide (SEQ ID NO. 2)] showed a ThT fluorescence value, amylin with ZR at a molar ratio of 1:1 (amylin alone: 38000) [1] of 41000, a ThT fluorescence value, amylin with ZR at a molar ratio of 1:10 (amylin alone: 38000) [1] of 43000 and a cell activity of SH-SY5Y cells (MTT), Amylin:ZR=1:1 group (Amylin group: 61%) [1] of 70%. For the same binder, the cell activity of SH-SY5Y cells (MTT), Amylin:ZR=1:10 group (Amylin group: 61%) [1] was 75%, the cytotoxicity inhibited, molar ratio 1:10 [1] was 45.4% and the ThT fluorescence value, Aβ42 with ZR at a molar ratio of 1:1 (Aβ42 alone: 26500) [2] was 22000. The ThT fluorescence value, Aβ42 with ZR at a molar ratio of 1:10 (Aβ42 alone: 26500) [2] was 17000, the cell activity of SH-SY5Y cells (MTT), Aβ:ZR=1:0.5 group (Aβ42 group: 71%) [2] was 80% and the cell activity of SH-SY5Y cells (MTT), Aβ:ZR=1:1 group (Aβ42 group: 71%) [2] was 82%. It also gave a cytotoxicity inhibited, molar ratio 1:1 [2] of 37.8%, a ThT fluorescence value, insulin with ZR at a molar ratio of 1:1 (insulin alone: 305000) [3] of 305000 and a ThT fluorescence value, insulin with ZR at a molar ratio of 1:10 (insulin alone: 305000) [3] of 310000. For the same binder, the cell activity of SH-SY5Y cells (MTT), insulin:ZR=1:1 group (insulin group: 77%) [3] was 92%, the cell activity of SH-SY5Y cells (MTT), insulin:ZR=1:5 group (insulin group: 77%) [3] was 102% and the cytotoxicity inhibited, molar ratio 1:5 [3] was 89.8%. It also gave a ThT fluorescence value, lysozyme with ZR at a molar ratio of 1:1 (lysozyme alone: 310000) [4] of 220000, a ThT fluorescence value, lysozyme with ZR at a molar ratio of 1:10 (lysozyme alone: 310000) [4] of 170000 and a cell activity of SH-SY5Y cells (MTT), lysozyme:ZR=1:1 group (lysozyme group: 55%) [4] of 85%. It also gave a cell activity of SH-SY5Y cells (MTT), lysozyme:ZR=1:10 group (lysozyme group: 55%) [4] of 93% and a cytotoxicity inhibited, molar ratio 1:10 [4] of 118%.

Work on SFFNNKR (modifications not checked) [histidine-tagged ZR polypeptide (SEQ ID NO. 2)] yielded an OD450 [5] of 0.34, an OD450 [6] of 0.18 and an OD450 [7] of 0.41. It also gave an OD450 [8] of 0.35, an OD450 [9] of 0.38 and an OD450 [10] of 0.5.
